{
  "source": "the DeepSol protein solubility set",
  "data": [
    {"assay": "soluble on expression in E. coli; label from the status in PepcDB or PDB records", "values": [
      {"sequence": "SLRYASDFEEIAVLGQGAFGQVVKARNALDSRYYAIKKIRHTEEKLSTILSEVMLLASLNHQYVVRYYAAWLERRNFVKPMTAVKKKSTLFIQMEYCENRTLYDLIHSENLNQQRDEYWRLFRQILEALSYIHSQGIIHRDLKPMNIFIDESRNVKIGDFGLAKNVHRSLDILKLDSQNLPGSSDNLTSAIGTAMYVATEVLDGTGHYNEKIDMYSLGIIFFEMIYPFSTGMERVNILKKLRSVSIEFPPDFDDNKMKVEKKIIRLLIDHDPNKRPGARTLLNSGWLPVKHQDEVIKEALKSL", "soluble on expression in E. coli": "soluble"},
      {"sequence": "SFLSEAGARPRAGEISASERRKWVEVFKACDEDNKGYLSREDFKVAIVMLFGYKPSKIEADAVMSSANPDTSGVSLEGFLNVVQRKKEAQLYRNEIRHIFTAFDVHYRGFLTLEDFKRAFSQVAPKLPSRTVLEVFREADQDSDGHVSFRDFEYAMNHGKAK", "soluble on expression in E. coli": "soluble"},
      {"sequence": "MDIKIAQESFPILVAENIYHCGYHSEKSYGAASYLIQHSQGNILVDSPRFTPPLVKRIEAMGGIKYMYLTHQDDVADHQKFAEHFQCQRILHTDEISAGTRNVEIQLTGLEPFPLQPDVLIIPVPGHTKGHTVLLYKNKFLFTGDHLAWSENRHQLTAFRDVCWYSWAEQIKSMRRLADYSFDWVLPGHGRRFHADVETMRQQMHKCIELMTDERQPLTFNSLEHHHHHH", "soluble on expression in E. coli": "not soluble"},
      {"sequence": "MGSDKIHHHHHHMIEQELTYQDLRIPSSEIYEAMGYKDSIPDQMVIDETNTLLKRVIPLLRPRFAFFFMEGTLDIEKETLSVQSIHPPTVNPIQDTIPTRSPEQNTFSTQSKSTVFSVGKTIARQLRGSEAFVFFAATAGTEFEVFQHTLQQEEDMVKIYIADSLGSIIAEKTADCMEVALAEYIREKNWKHTNRYSPGYCGWHVSEQQKLFPLFPIAAPCGIRLTDSSLMVPIKSVSGVIGTGTNVRKLEYTCGLCTYENCYRKRKHR", "soluble on expression in E. coli": "not soluble"},
      {"sequence": "MEAEMSDERCALVLEGGAMRGMYTAGVLDCFMDHDISFDAVIGVSAGALFGVNLLSKQRGRVIRYNKRFNSDKNYMGIRPLLREKNIVSTKYAYDTVPRELDPFDDEEYKKSDIPFYAVVTNIRTGKPEYVQIKSVFDQMDVLRASGSMPVVSKPVKLGNEWYLDGAVTDSIPYEHMLDMGYDRVVVVLTKPADYIKKPMPRLFTSVYKKRFPRFYEAFSNRHIMYNYQLEHLKELEKQGIAEVLRPSEHIKISKVEKDPNKLESLYQLGLRDAKRLLADKQGMEKQ", "soluble on expression in E. coli": "not soluble"},
      {"sequence": "MSYQNLVSEAGLTQKLLIHGDKELFQHELKTIFARNWLFLTHDSLIPSPGDYVKAKMGVDEVIVSRQNDGSVRAFLNVCRHRGKTLVHAEAGNAKGFVCGYHGWGYGSNGELQSVPFEKELYGDAIKKKCLGLKEVPRIESFHGFIYGCFDAEAPPLIDYLGDAAWYLEPTFKYSGGLELVGPPGKVVVKANWKSFAENFVGDGYHVGWTHAAALRAGQSVFSSIAGNAKLPPEGAGLQMTSKYGSGMGVFWGYYSGNFSADMIPDLMAFGAAKQEKLAKEIGDVRARIYRSFLNGTIFPNNSFLTGSAAFRVWNPIDENTTEVWTYAFVEKDMPEDLKRRVADAVQRSIGPAGFWESDDNENMETMSQNGKKYQSSNIDQIASLGFGKDVYGDECYPGVVGKSAIGETSYRGFYRAYQAHISSSNWAEFENASRNWHIEHTKTTDR", "soluble on expression in E. coli": "soluble"},
      {"sequence": "RSVAAPLVKLRKATQNIKEGNLDFVLDVEGTDEFSELCRDFEEMRRRLKESAEEKIAMDKENKELISNISHDLKTPITAVKGYVEGIMDGVADTPEKMDRYVRTIYNKTNEMDHLINELTFYSKIDTNRIPYTFSKLNVEDYFSDCAEEVGLELETRGIQLCYANYVDKDVLVIA", "soluble on expression in E. coli": "not soluble"},
      {"sequence": "MNQQEFQLREITYQDIKDLLAIEREVYAGELPWTMSAFMAELGSKAPHLYLLAAINGKTVGFIGCRIQGTDAHITNVAVHTAYQGLGLGRSLIEETRIFAKKNRCETLSLEVRMSNVKAQRLYRKIGFVSQTVKKGYYDENNEDALEMIIDLKEE", "soluble on expression in E. coli": "not soluble"},
      {"sequence": "MSLSSDSQEIRRSILSKWHKTLSKYGNLFSSDTISGTSPPSVFVGSYNYPKVFVGPMVPPIHGDTSLLDSPEKWKGRSLEEIINFRLNLVRGIHKTGIEHTEGRYIENLQEITMSEKPTDLDLVFMKNTSSNISMDGESAPFGPTGEIKSAKFSGSSSTKPIEKIFYDKDMKAQDAVLKLYNSGIEISKIQKCFSIGMLGKKRKLVPTKWSITATDDIISKSIVKEILENSIIDTCKVFSYEHLGNVFSVILFPHRWIFEMIEGWYSNGILGFGSDSEDARGIDHPPRIAGAYFAAKLGVSEYLLKNKIQAGVLIFREIRPEYAIPVGVWQVREGIREAMKQKPQIVSDFNHALNLASAKTSVSKKEWIVNGDMINRVRQKTILDFMEGHHHHHH", "soluble on expression in E. coli": "not soluble"},
      {"sequence": "MRQSSQARETTETKIKLNLQLDESTNVSIQTGVGFFDHMLTLFARHGRFGLQVEAEGDVFVDAHHTVEDVGIVLGNCLKEALQNKEGINRYGSAYVPMDESLGFVAIDISGRSYCVFQGELTNPKLGDFDTELTEEFFRAVAHAANITLHARVLYGSNTHHKIEALFKAFGRALREAVEKNANITGVNSTKGML", "soluble on expression in E. coli": "not soluble"},
      {"sequence": "MGSDKIHHHHHHMFLTKVSLLDHPESLPGYLSSLAIVEYLHEQPLEFRAPITVITGENGVGKSTLVEALAVGMRLNPSGGSRHANFGREGDIVSSLHQSLKLVRRENPRDAFFFRGETMYNVASYYEELMGEKNMHDLHKMSHGESVFAVIDRRFNNQGFFVLDEPEAGLSMLRQLELLGKLGNLARGGAQIIMATHSPILLAIPGAEILEITSSGVAKVNFEDAEAVRAAREFVADPRGTAAFLTAEEDHQ", "soluble on expression in E. coli": "not soluble"},
      {"sequence": "MGSDKIHHHHHHMITSVAVVGCGWFGLPLAKALLSQGLKVTGSKRSPQEAEALSADGITGFALDLETLESEDLSSQTREAITQGLACDAIVINIPPGLRRGDNGYLDRLKRLKALMGTHEYQRIIFISTSGVYPAGGDSSGSGCVESDAKVHSPASETLLAAEALFSGANSADGVSNNHSDGSESNNSCVVVRFAGLIGPKRHPGRFLAGREDVPGGNLAVNMVHLDDCIGAVTLLLKAEGALSPAYNLCAPLHPTKAEFYQKAATQQGLTPPSFIEGDLAEDKRVDGGLITRELNYQYKFTDPLAMLTHC", "soluble on expression in E. coli": "not soluble"},
      {"sequence": "MSRFVQDLSKAMSQDGASQFQEVILQELELSVKKELEKILTTAASHEFEHTKKDLDGFRKLFHRFLQEKGPSVDWGKIQRPPEDSIQPYEKIKARGLPDNISSVLNKLVVVKLNGGLGTSMGCKGPKSLIGVRNENTFLDLTVQQIEHLNKTYNTDVPLVLMNSFNTDEDTKKILQKYNHCRVKIYTFNQSRYPRINKESLLPIAKDVSYSGENTEAWYPPGHGDIYASFYNSGLLDTFIEEGKEYIFVSNIDNLGATVDLYILNHLMNPPNGKRCEFVMEVTNKTRADVKGGTLTQYEGKLRLVEIAQVPKAHVDEFKSVSKFKIFNTNNLWISLGAVKRLQEQNAIDMEIIVNPKTLDGGLNVIQLETAVGAAIKSFENSLGINVPRSRFLPVKTTSDLLLVMSNLYSLNAGSLTMSEKREFPTVPLVKLGSSFTKVQDYLRRFESIPDMLELDHLTVSGDVTFGKNVSLKGTVIIIANHGDRIDIPPGAVLENKIVSGNLRILDH", "soluble on expression in E. coli": "soluble"},
      {"sequence": "MDTFGLIQLAELIYEYCGIDFFKNLSSLESKISERLKELGLSCWEYGGYLRVEPKEWDTLIDLITVNETYFFREENLLEEFQKVILPKYKDRTPNNPLRIWSSACSSGEEPYTLAILSEETGLFETGAVEIIASDIDKKVLEKARRGLYNKKSFSFRTMPKEILDKYFISFGDDYKVKDSIRAMVDFRRVNLLDENKLEKVGEVDIVFCRNVLIYFDTKAINKVINSLYKVLRAGGYLFLGHAETITGMNTGFETIYTPSAFYYRKGERH", "soluble on expression in E. coli": "not soluble"},
      {"sequence": "IGQVDFGIAGNFSYNKNEILDLGGGDPNKYLDATDGYSQRNKVGEAMNSYYIYRADGFFNSQEEADAYTAKYGNPFGKTFKAGDLRYVDTNKDGKLTADDREYCGSSDPKIIYGFNINAGWKGIDLSLMFNGAAGVKRLFDGYEVYGNFSGDAAHPATIWRDAWTPDNHDASMPRIFYDTNSASSSRSVQSDFWLQDTSYLRLKNLQLGYTLPKGWLNSVGVENIRIYYSVENLLTFDKMKINIDPESTSQRLSSYPLLRTHAFGVNVTF", "soluble on expression in E. coli": "not soluble"},
      {"sequence": "RPRGPRAVFILPVTAQGEAVLIRQFRYPLRATITEIVAGGVEKGEDLGAAAARELLEEVGGAASEWVPLPGFYPQPSISGVVFYPLLALGVTLGAAQLEDTETIERVVLPLAEVYRMLEAGEIQDGPSSLTLWQARGELTRRGLL", "soluble on expression in E. coli": "soluble"},
      {"sequence": "MANPELLEEQREETRLIIEELLEDGSDPDALYTIEHHLSADDFETLEKAAVEAFKLGYEVTEPEELEVEEGDTVICCDILSECALNAELIDAQVEQLMNLAEKYDVEYDGWGTYFEDPNGEEGDDDDYVDEDDDGVRH", "soluble on expression in E. coli": "not soluble"},
      {"sequence": "MFSISLLSCLFLGTVPALAQTGGERRLSPEKSEIWGPGLKAHVVLPVRYFYIRAVDTSGEQFTSSPGEKVFQVKISAPDEQFTRVGVQVLDRKDGSFIVRYRMYASYRNLKIEVKHHGQHVAESPYVLRGPVYHENCDCPLEDSAAWLREMNCSETISQIQKDLAHFPTVDPEKIAAEIPKRFGQRQSLCHYTLKDNKVYIKTHGEHVGFRIFMDAILLSLTRKVRMPDVEFFVNLGDWPLEKKKSNSNIQPIFSWCGSTESRDIVMPTYDLTDSVLETMGRVSLDMMSVQANTGPPWESKNSTAVWRGRDSRKERLELVKLSRKHPELIDAAFTNFFFFKHDESLYGPIVKHISFFDFFKHKYQINIDGTVAAYRLPYLLVGDSVVLKQDSIYYEHFYNELQPWKHYIPVKSNLSDLLEKLKWAKEHDAEAKKIAKAGQEFARNNLMGDDIFCYYFKLFQGYANLQVSEPQIREGMKRVEPQSEDDLFPCTCHRRKAKDEL", "soluble on expression in E. coli": "soluble"},
      {"sequence": "DDAAIKRKLQSFNISNIVIKSSPISGIKTAVTDQGILYVSEDGKYLFEGKLYELTNNGPVDVAGKILVDKLNSYKDEMIVYPAKNEKHVVTVFMDITCHYCHLLHQQLKEYNDLGITVRYLAFPRAGMNNQTAKQMEAIWTAKDPVFALNEAEKGNLPKEVKTPNIVKKHYELGIQFGVRGTPSIVTSTGELIGGYLKPADLLRALEETAQ", "soluble on expression in E. coli": "soluble"},
      {"sequence": "MGSDKIHHHHHHQNQPLRITIDEGIIEPLPYAAPNFVPDSPAAAEYAAEIARVLAADLTGSGLFREIPSTAYISQVTSFDAPVQFADWKAINAQALITGAVSVSGNRLTVRFRLWDVFAGAELGSGLQFAGTTDGWRRMSHKVADAVYSRITGESGYFDSRVAFVSESGPKDQRRKRLAIMDYDGANVQYLTDSSSIVLAPRFSPTGDRVLYTSYQGGFPRIHILDVGQVQQRVLQSQDGTMSFAPRFSPDGQTVLFSLAQGGNTDLYAMNIASGQSTRLTSAPSIETAPSYAPDGSRIVFESDRSGTPQLYVMSAAGGEATRISFGQGRYGTPVWSPRGDLIAFTKQSKGRFHIGVMRADGSEERLLTASFLDEGPTWSPNGRVIMFTRETQGASGRAALYSVDISGRNLRPVRTPDGGSDPSWSPLQK", "soluble on expression in E. coli": "not soluble"},
      {"sequence": "MDARPVHPAFQVFTDALRQRFGEALDAVVLYGSCLHTSDLTEGIADFYVLVSDYRLAYSGRLLAGLNAWLPPNVFYLEVPAAAGVMRAKYAVISTADFERGARQWFHPYIWARFAQPARLLYARDDQTGKRVHTAQASAVLKFISTTLPVLESGPSDLEMIWASGLMLTYAAELRAEREARARHLVRIDPEIYSRLTAAAMPALIPLLSLQADGRYHIGPITPLKRLSARIHWRLRRWQGRVLSVLRLSKATMTFRDCLDYAAWKIERHTGIKVEITPMLRRHPILWGYKVMWQLLRRGVLRLEHHHHHH", "soluble on expression in E. coli": "soluble"}
    ]}
  ]
}
